Results on 25 molecules are retold here after patent publication US20190233494A1 (Sanofi, published 2019).

The target in this test is T1, RXFP1 receptor (endogenous, on OVCAR5 cells) (UniProt Q9HBX9 1-757, limits assumed).
T1 sequence (looked up): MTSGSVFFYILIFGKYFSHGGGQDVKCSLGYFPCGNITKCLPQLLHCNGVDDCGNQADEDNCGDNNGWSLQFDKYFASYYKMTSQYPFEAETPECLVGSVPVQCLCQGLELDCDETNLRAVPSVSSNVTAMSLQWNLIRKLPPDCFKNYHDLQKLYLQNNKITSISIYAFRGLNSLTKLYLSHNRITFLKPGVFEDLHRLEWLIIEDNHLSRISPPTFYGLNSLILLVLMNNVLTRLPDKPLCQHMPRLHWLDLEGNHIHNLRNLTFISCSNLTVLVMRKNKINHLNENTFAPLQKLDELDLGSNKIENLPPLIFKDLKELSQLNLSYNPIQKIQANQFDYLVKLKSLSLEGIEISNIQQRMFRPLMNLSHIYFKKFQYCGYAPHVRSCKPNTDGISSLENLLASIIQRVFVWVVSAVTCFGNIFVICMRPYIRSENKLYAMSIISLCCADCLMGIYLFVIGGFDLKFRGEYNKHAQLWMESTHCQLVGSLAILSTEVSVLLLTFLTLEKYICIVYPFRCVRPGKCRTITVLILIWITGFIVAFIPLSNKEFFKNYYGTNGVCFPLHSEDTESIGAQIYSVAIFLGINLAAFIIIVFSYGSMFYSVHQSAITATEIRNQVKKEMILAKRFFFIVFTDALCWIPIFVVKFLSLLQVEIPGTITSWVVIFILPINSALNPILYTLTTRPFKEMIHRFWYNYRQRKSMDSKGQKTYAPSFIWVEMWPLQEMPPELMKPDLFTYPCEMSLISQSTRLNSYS
Kind of test: cell-based or functional assay.

Starred links: 1 amine or outer side, 2 acyl side, 3 side chain; linkers in the order of their positions; H or OH if unused. Non-standard residues stand in square brackets, D forms with d. Groups on a side chain read outwards from the residue. *: point of attachment. TTDS = 4-[3-[2-[2-(3-aminopropoxy)ethoxy]ethoxy]propylamino]-4-oxo-butanoyl; γGlu = O=C(O)[C@H](CCC(=O)[*:2])N[*:1]; Stearoyl = CCCCCCCCCCCCCCCCCC(=O)*; Palmitoyl = CCCCCCCCCCCCCCCC(=O)*; αMeK = C[C@](N)(CCCCN)C(=O)O; AEEA = NCCOCCOCC(=O)O; Aib = CC(C)(N)C(=O)O

On to Ac-LEGRERVRAK(Ac)I[Aib][Aib]EGK([TTDS-TTDS-TTDS-TTDS-γGlu-γGlu-γGlu-Palmitoyl])STWS[Aib]RRK(Ac)-NH2 [peptide of SEQ ID NO: 75], for which the “EC50 (nM), OVCAR 5 cells (cAMP)” value amounted to 0.19 nM and the “EMax, OVCAR 5 cells (cAMP)” value amounted to 97%.

With Ac-LEGREKVRAK(Ac)I[Aib][Aib]EGK([TTDS-TTDS-TTDS-TTDS-γGlu-γGlu-γGlu-Palmitoyl])STFS[αMeK]RAK(Ac)-NH2 [peptide of SEQ ID NO: 78], the “EC50 (nM), OVCAR 5 cells (cAMP)” value was determined as 0.18 nM and the “EMax, OVCAR 5 cells (cAMP)” value was 99%.

Turning to Ac-LEGREKVRAK(Ac)I[Aib][Aib]EGK([TTDS-TTDS-TTDS-γGlu-γGlu-γGlu-Palmitoyl])SKFS[Aib]RKK(Ac)-NH2 [peptide of SEQ ID NO: 79], the “EC50 (nM), OVCAR 5 cells (cAMP)” value amounted to 0.45 nM and the “EMax, OVCAR 5 cells (cAMP)” value was 95%.

For the molecule Ac-LEGREKVRAK(Ac)I[Aib][Aib]EGK([TTDS-TTDS-TTDS-γGlu-γGlu-γGlu-Palmitoyl])STWS[Aib]RKK(Ac)-NH2 [peptide of SEQ ID NO: 1], the “EC50 (nM), OVCAR 5 cells (cAMP)” value was found to be 1.5 nM and the “EMax, OVCAR 5 cells (cAMP)” value was 99%.

For the molecule Ac-LEGREKVRAK(Ac)I[Aib][Aib]EGK([TTDS-TTDS-TTDS-γGlu-γGlu-γGlu-Palmitoyl])SKWS[Aib]RAK-NH2 [peptide of SEQ ID NO: 73], the “EC50 (nM), OVCAR 5 cells (cAMP)” value was found to be 0.2 nM and the “EMax, OVCAR 5 cells (cAMP)” value is 95%.

As to Ac-LEGRERVRAK(Ac)I[Aib][Aib]EGK([TTDS-TTDS-TTDS-γGlu-γGlu-γGlu-Palmitoyl])STWS[Aib]RKK(Ac)-NH2 [peptide of SEQ ID NO: 67], the “EC50 (nM), OVCAR 5 cells (cAMP)” value worked out at 0.48 nM and the “EMax, OVCAR 5 cells (cAMP)” value was determined as 95%.

Ac-LEGREKVRAK(Ac)I[Aib][Aib]EGK([TTDS-TTDS-γGlu-γGlu-γGlu-Stearoyl])STWS[Aib]RKK(Ac)-NH2 [peptide of SEQ ID NO: 6]: the “EC50 (nM), OVCAR 5 cells (cAMP)” value came to 0.27 nM and the “EMax, OVCAR 5 cells (cAMP)” value is 95%.

As for Ac-LEGREKVRAK(Ac)I[Aib][Aib]EGK([TTDS-TTDS-TTDS-γGlu-γGlu-γGlu-Palmitoyl])STWS[Aib]RK(Ac)K-NH2 [peptide of SEQ ID NO: 68], the “EC50 (nM), OVCAR 5 cells (cAMP)” value was determined as 0.88 nM and the “EMax, OVCAR 5 cells (cAMP)” value stood at 98%.

As for Ac-LEGRERVRAK(Ac)I[Aib][Aib]EGK([TTDS-TTDS-TTDS-γGlu-γGlu-γGlu-Palmitoyl])STFS[Aib]RRK(Ac)-NH2 [peptide of SEQ ID NO: 76], the “EC50 (nM), OVCAR 5 cells (cAMP)” value came out at 0.18 nM and the “EMax, OVCAR 5 cells (cAMP)” value worked out at 96%.

With Ac-LEGREKVRAK(Ac)I[Aib][Aib]EGK([TTDS-TTDS-TTDS-γGlu-γGlu-γGlu-Stearoyl])STFS[αMeK]RAK(Ac)-NH2 [peptide of SEQ ID NO: 7], the “EC50 (nM), OVCAR 5 cells (cAMP)” value came to 0.07 nM and the “EMax, OVCAR 5 cells (cAMP)” value was determined as 95%.

As to Ac-LEGREKVRAK(Ac)I[Aib][Aib]EGK([TTDS-TTDS-TTDS-γGlu-γGlu-γGlu-Stearoyl])STFS[Aib]RKK(Ac)-NH2 [peptide of SEQ ID NO: 61], the “EC50 (nM), OVCAR 5 cells (cAMP)” value worked out at 0.1 nM and the “EMax, OVCAR 5 cells (cAMP)” value was determined as 97%.

As for Ac-LEGREKVRAK(Ac)I[Aib][Aib]EGK([TTDS-TTDS-γGlu-γGlu-γGlu-Stearoyl])STFS[Aib]RKK(Ac)-NH2 [peptide of SEQ ID NO: 60], the “EC50 (nM), OVCAR 5 cells (cAMP)” value was 0.15 nM and the “EMax, OVCAR 5 cells (cAMP)” value worked out at 95%.

Ac-LEGREKVRAK(Ac)I[Aib][Aib]EGK([TTDS-TTDS-TTDS-γGlu-γGlu-γGlu-γGlu-Palmitoyl])STWS[Aib]RKK(Ac)-NH2 [peptide of SEQ ID NO: 62]: the “EC50 (nM), OVCAR 5 cells (cAMP)” value amounted to 0.6 nM and the “EMax, OVCAR 5 cells (cAMP)” value turned out to be 98%.

On to Ac-LEGREKVRAK(Ac)I[Aib]IEGK([TTDS-TTDS-TTDS-TTDS-γGlu-γGlu-γGlu-Palmitoyl])STWS[Aib]RKK(Ac)-NH2 [peptide of SEQ ID NO: 74], for which the “EC50 (nM), OVCAR 5 cells (cAMP)” value was determined as 0.54 nM and the “EMax, OVCAR 5 cells (cAMP)” value is 94%.

On to Ac-LEGREKVRAK(Ac)I[Aib][Aib]EGK([TTDS-TTDS-TTDS-γGlu-γGlu-γGlu-Palmitoyl])STWS[Aib]RAK-NH2 [peptide of SEQ ID NO: 71], for which the “EC50 (nM), OVCAR 5 cells (cAMP)” value is 0.36 nM and the “EMax, OVCAR 5 cells (cAMP)” value is 95%.

B1: peptide of SEQ ID NO: 5 (peptide)
peptide: Ac-LEGREKVRAK(Ac)I[Aib][Aib]EGK([AEEA-AEEA-AEEA-AEEA-γGlu-γGlu-γGlu-Palmitoyl])STWS[Aib]RKK(Ac)-NH2
SMILES: CCCCCCCCCCCCCCCC(=O)N[C@@H](CCC(=O)N[C@@H](CCC(=O)N[C@@H](CCC(=O)NCCOCCOCC(=O)NCCOCCOCC(=O)NCCOCCOCC(=O)NCCOCCOCC(=O)NCCCC[C@H](NC(=O)CNC(=O)[C@H](CCC(=O)O)NC(=O)C(C)(C)NC(=O)C(C)(C)NC(=O)[C@@H](NC(=O)[C@H](CCCCNC(C)=O)NC(=O)[C@H](C)NC(=O)[C@H](CCCNC(=N)N)NC(=O)[C@@H](NC(=O)[C@H](CCCCN)NC(=O)[C@H](CCC(=O)O)NC(=O)[C@H](CCCNC(=N)N)NC(=O)CNC(=O)[C@H](CCC(=O)O)NC(=O)[C@H](CC(C)C)NC(C)=O)C(C)C)[C@@H](C)CC)C(=O)N[C@@H](CO)C(=O)N[C@H](C(=O)N[C@@H](Cc1c[nH]c2ccccc12)C(=O)N[C@@H](CO)C(=O)NC(C)(C)C(=O)N[C@@H](CCCNC(=N)N)C(=O)N[C@@H](CCCCN)C(=O)N[C@@H](CCCCNC(C)=O)C(N)=O)[C@@H](C)O)C(=O)O)C(=O)O)C(=O)O
B1: the “EC50 (nM), OVCAR 5 cells (cAMP)” value worked out at 9.1 nM and the “EMax, OVCAR 5 cells (cAMP)” value was determined as 85%.

Consider Ac-LEGREKVRAK(Ac)I[Aib]IEGK([TTDS-TTDS-TTDS-γGlu-γGlu-γGlu-Palmitoyl])STWS[Aib]RKK(Ac)-NH2 [peptide of SEQ ID NO: 70], for which the “EC50 (nM), OVCAR 5 cells (cAMP)” value was found to be 1.34 nM and the “EMax, OVCAR 5 cells (cAMP)” value was 94%.

For Ac-LEGREKVRAK(Ac)I[Aib][Aib]EGK([TTDS-TTDS-TTDS-γGlu-γGlu-γGlu-Palmitoyl])SQWS[Aib]RKK(Ac)-NH2 [peptide of SEQ ID NO: 63], the “EC50 (nM), OVCAR 5 cells (cAMP)” value was 1.45 nM and the “EMax, OVCAR 5 cells (cAMP)” value is 97%.

Turning to Ac-LEGREKVRAK(Ac)I[Aib][Aib]EGK([TTDS-TTDS-TTDS-γGlu-γGlu-γGlu-Palmitoyl])SRWS[Aib]RKK(Ac)-NH2 [peptide of SEQ ID NO: 64], the “EC50 (nM), OVCAR 5 cells (cAMP)” value was 0.52 nM and the “EMax, OVCAR 5 cells (cAMP)” value was 95%.

In the case of Ac-LEGREKVRAK(Ac)I[Aib][Aib]EGK([TTDS-TTDS-TTDS-γGlu-γGlu-γGlu-Palmitoyl])STF[Aib]RRAK(Ac)-NH2 [peptide of SEQ ID NO: 72], the “EC50 (nM), OVCAR 5 cells (cAMP)” value worked out at 0.56 nM and the “EMax, OVCAR 5 cells (cAMP)” value stood at 91%.

For Ac-LEGRERVRAK(Ac)I[Aib][Aib]EGK([TTDS-TTDS-TTDS-TTDS-γGlu-γGlu-γGlu-Palmitoyl])STFS[Aib]RRK(Ac)-NH2 [peptide of SEQ ID NO: 77], the “EC50 (nM), OVCAR 5 cells (cAMP)” value was found to be 0.11 nM and the “EMax, OVCAR 5 cells (cAMP)” value turned out to be 98%.

With Ac-LEGREKVRK(Ac)QI[Aib][Aib]EGK([TTDS-TTDS-TTDS-γGlu-γGlu-γGlu-Palmitoyl])STWS[Aib]RKK(Ac)-NH2 [peptide of SEQ ID NO: 65], the “EC50 (nM), OVCAR 5 cells (cAMP)” value is 1.19 nM and the “EMax, OVCAR 5 cells (cAMP)” value was found to be 95%.

Take Ac-LEGREKVRAK(Ac)I[Aib][Aib]EGK([TTDS-TTDS-TTDS-γGlu-γGlu-γGlu-Palmitoyl])STWK(Ac)[Aib]RAK(Ac)-NH2 [peptide of SEQ ID NO: 66]: the “EC50 (nM), OVCAR 5 cells (cAMP)” value was found to be 6.31 nM and the “EMax, OVCAR 5 cells (cAMP)” value was found to be 93%.

Take Ac-LEGREKVRAK(Ac)I[Aib][Aib]EGK([TTDS-TTDS-TTDS-TTDS-γGlu-γGlu-γGlu-Stearoyl])STFS[Aib]RKK(Ac)-NH2 [peptide of SEQ ID NO: 59]: the “EC50 (nM), OVCAR 5 cells (cAMP)” value amounted to 0.09 nM and the “EMax, OVCAR 5 cells (cAMP)” value came out at 99%.

Take Ac-LEGREKVRAK(Ac)I[Aib][Aib]EGK([TTDS-TTDS-TTDS-γGlu-γGlu-γGlu-Palmitoyl])STWS[Aib]RK(Ac)R-NH2 [peptide of SEQ ID NO: 69]: the “EC50 (nM), OVCAR 5 cells (cAMP)” value was 0.78 nM and the “EMax, OVCAR 5 cells (cAMP)” value is 97%.
